Experimental data from patent US20230079439A1 (University of California, published 2023).
Numbered stars: 1 amine (or outer) side, 2 acyl side, 3 side chain; on linkers, the order of the positions; unused ones are H or OH. Suc = O=C(CCC(=O)[*:2])[*:1]

Target: neurexins (NXs) located on the plasma membrane of INS-1E cells (rat)
Test: cell-based or functional assay

Binder: {PEG2000-Suc}-QQGEFLNYD-NH2 (also: dimer of two HSA-28 monomers bridged via PEG2000)
- EC50 of the increase of GSIS in INS-1E cells: 32 µM
